The text below walks through data of the RNAGym collection of RNA variant scans (doi:10.7554/elife.80360).

Sequences and labels used below:
B1: HDV Ribozyme (parent)
chain: GGCCGGCAUGGUCCCAGCCUCCUCGCUGGCGCCGGCUGGGCAACAUUCCGAGGGGACCGUCCCCUCGGUAAUGGCGAAUGGGACCCA

The variants in the series derive from B1. Kind of series: self-cleavage, relative activity (ratio to wild type); higher = more cleavage; co-transcriptional.
Consider G35A G50U, for which the self-cleavage is 0.629.

On to G52U A77C, for which the self-cleavage stood at 0.54.

As to G53U G67U, the self-cleavage was 0.715.

Take C14A C85A: the self-cleavage was found to be 0.623.

On to G6C C86A, for which the self-cleavage is 0.482.

On to G17U U27C, for which the self-cleavage was found to be 0.308.

A8C U69C: the self-cleavage came out at 0.831.

In the case of U12G C30G, the self-cleavage was found to be 0.

Consider U60C, for which the self-cleavage worked out at 1.01.

Take G28A G39A: the self-cleavage worked out at 0.187.

For G17A A87U, the self-cleavage was found to be 0.708.

As for G5U U72C, the self-cleavage came to 0.119.

On to G17C G80A, for which the self-cleavage was found to be 0.0252.

For the variant U12C U46G, the self-cleavage is 0.0665.

As for U20C G76A, the self-cleavage came to 0.198.

Take C22U C30U: the self-cleavage was found to be 0.194.

Take C22U C30A: the self-cleavage was 0.117.

Take A16G G17A: the self-cleavage amounted to 0.617.

C24A G81C: the self-cleavage was determined as 0.17.

As to U20G A42U, the self-cleavage came to 0.

Take U9C G52A: the self-cleavage was 1.04.

As to C84G C85A, the self-cleavage stood at 0.928.

For the variant G74C G82C, the self-cleavage is 0.0475.

For G2C A83U, the self-cleavage came out at 0.0791.

For the variant G53C U60C, the self-cleavage came out at 1.

Regarding G29U G38C, the self-cleavage came out at 0.0386.

Consider C3U G31U, for which the self-cleavage turned out to be 0.173.

Turning to G29C C48G, the self-cleavage came out at 0.095.

Take C24U G31U: the self-cleavage was 0.0228.

On to C33U G73C, for which the self-cleavage is 0.31.

Regarding C13A A83U, the self-cleavage was 0.142.

On to C61U U79C, for which the self-cleavage is 0.487.

Regarding C63U A78G, the self-cleavage was determined as 0.755.

Regarding C63U A78C, the self-cleavage came to 0.237.

As for U12C A42C, the self-cleavage was found to be 0.0489.

With G29A G74A, the self-cleavage is 0.0773.

As for C21G C44U, the self-cleavage turned out to be 0.0898.

Take C13G U37A: the self-cleavage is 0.17.

On to C13A U23A, for which the self-cleavage was 0.138.

For the variant A16C U79C, the self-cleavage is 0.8.

Take C49U C62U: the self-cleavage came out at 1.17.

For the variant U9C G73U, the self-cleavage stood at 0.383.

With C24U G80C, the self-cleavage came to 0.179.

On to C7G G76C, for which the self-cleavage was 0.151.

Take U37A C44U: the self-cleavage is 0.0386.

For G50A U69G, the self-cleavage is 0.76.

For the variant G5U G50C, the self-cleavage was 0.192.

Regarding C22U G25A, the self-cleavage is 0.

Consider G29C G40C, for which the self-cleavage was 0.18.

For the variant G53C G68A, the self-cleavage worked out at 0.577.

For the variant A71C G73A, the self-cleavage was 0.45.

For the variant U27A U65C, the self-cleavage came to 0.957.

Regarding G11U U27G, the self-cleavage was 0.353.

For the variant C3U U79A, the self-cleavage turned out to be 0.591.

As for C57U U60A, the self-cleavage came to 1.07.

For C3G U12C, the self-cleavage amounted to 0.

On to A71U G74U, for which the self-cleavage is 0.689.

For the variant G1C G5U, the self-cleavage is 0.175.

As for U20A A77U, the self-cleavage is 0.

In the case of A45C C63A, the self-cleavage is 0.748.

As to G17A U23G, the self-cleavage is 0.427.

For the variant U23A A56U, the self-cleavage is 1.08.

With C13A C57A, the self-cleavage came to 0.185.

As for U37G G73U, the self-cleavage was 0.0923.

Turning to C14G C41A, the self-cleavage turned out to be 0.776.

Turning to C7G C13U, the self-cleavage turned out to be 0.158.

In the case of U9C C33G, the self-cleavage was found to be 0.249.

On to C44G G80A, for which the self-cleavage amounted to 0.223.

In the case of C41A G67A, the self-cleavage turned out to be 0.914.

For the variant U20C G53C, the self-cleavage was determined as 0.151.

G10U G73U: the self-cleavage was 0.0639.

As to C32A C49G, the self-cleavage came out at 0.222.

C7G A51G: the self-cleavage is 0.237.

On to G35A U79G, for which the self-cleavage turned out to be 0.397.

Turning to G73C G74U, the self-cleavage stood at 0.166.

For the variant C4G U23G, the self-cleavage was found to be 0.0386.

Consider C15U U72G, for which the self-cleavage turned out to be 0.665.

C33A G81A: the self-cleavage amounted to 0.0339.

Regarding C57G A83G, the self-cleavage was 0.917.

Take G6U G17A: the self-cleavage is 0.19.

Take C26A G74U: the self-cleavage was determined as 0.519.

In the case of A16C C21G, the self-cleavage came to 0.119.

For the variant A16U G34A, the self-cleavage worked out at 0.166.

As for G2A G67U, the self-cleavage was found to be 0.157.

In the case of G31U C49U, the self-cleavage was 0.302.

On to G11A G34C, for which the self-cleavage was determined as 0.0378.

Take A51C C62A: the self-cleavage amounted to 0.623.

As to C13G A71G, the self-cleavage is 0.

Take G5U G11A: the self-cleavage is 0.18.

As to C13G G50U, the self-cleavage turned out to be 0.0426.

Take C15A C21G: the self-cleavage stood at 0.

As for G11C G67C, the self-cleavage is 0.115.

In the case of C75G U79C, the self-cleavage came to 0.113.

On to C22G C75G, for which the self-cleavage is 0.181.

Consider C13U G76C, for which the self-cleavage stood at 0.772.

As for G59A U72A, the self-cleavage came to 0.698.

For G17C G35A, the self-cleavage worked out at 0.147.

As to C33A C62U, the self-cleavage was determined as 0.241.

As for G34A C61G, the self-cleavage was 0.104.

Consider C26G C58U, for which the self-cleavage is 0.931.

Regarding U37C C86U, the self-cleavage was determined as 1.06.

As to G10A A78G, the self-cleavage turned out to be 0.302.

As for A45C G55A, the self-cleavage was determined as 0.554.

With U37A U79A, the self-cleavage was determined as 0.246.

Consider C49U U60A, for which the self-cleavage came to 0.718.

Consider C64G C75G, for which the self-cleavage was found to be 0.

Consider G35C A56C, for which the self-cleavage turned out to be 0.302.

As to U37G G54C, the self-cleavage came to 0.0594.

On to G11C G53A, for which the self-cleavage was determined as 0.344.

Regarding C33G G54A, the self-cleavage was 0.332.

Take C30G A77U: the self-cleavage amounted to 0.0665.

Take C48G G52C: the self-cleavage was determined as 0.762.

As to C33U G55C, the self-cleavage turned out to be 0.831.

Consider C66G G67A, for which the self-cleavage was 0.706.

As to A83C A87C, the self-cleavage was determined as 0.499.

C19U C41A: the self-cleavage came to 0.0804.

On to G59A U60A, for which the self-cleavage amounted to 0.979.

Take G73C C75U: the self-cleavage worked out at 0.0755.

Regarding G6U G74A, the self-cleavage came to 0.16.

In the case of G17C G29A, the self-cleavage worked out at 0.0437.

For the variant A8U C21A, the self-cleavage worked out at 0.

For the variant A16U U27G, the self-cleavage came out at 0.665.

G17C A83C: the self-cleavage is 0.244.

Take C24A G28U: the self-cleavage worked out at 0.0386.

On to G73A C84A, for which the self-cleavage is 0.564.

Consider C21A G29C, for which the self-cleavage turned out to be 0.0604.

On to C33U C36U, for which the self-cleavage amounted to 0.519.

With G11C G81U, the self-cleavage amounted to 0.225.

Turning to C4G G82A, the self-cleavage stood at 0.0674.

In the case of U46A G50A, the self-cleavage came out at 0.658.

With C36G A51G, the self-cleavage worked out at 0.151.

On to G39C G55A, for which the self-cleavage is 0.211.

With C26U G74U, the self-cleavage is 0.777.

In the case of C21U C44A, the self-cleavage is 0.437.

G81A A83C: the self-cleavage stood at 0.165.

On to G54U A83U, for which the self-cleavage amounted to 0.446.

Regarding G35A G40U, the self-cleavage turned out to be 0.42.

Take U27C A77U: the self-cleavage was 0.262.

As for A51U G74U, the self-cleavage stood at 0.369.

On to A16G C22G, for which the self-cleavage came out at 0.185.

In the case of G25U G76C, the self-cleavage turned out to be 0.224.

On to G10C C75U, for which the self-cleavage was 0.109.

With U20A A56G, the self-cleavage stood at 0.0536.

Take U37C A78C: the self-cleavage was determined as 0.196.

Turning to G1U U47C, the self-cleavage was 0.475.

Consider C24A U72A, for which the self-cleavage is 0.271.

C4G G54A: the self-cleavage came out at 0.288.

For C61G C84A, the self-cleavage came out at 0.708.

On to G17C G67A, for which the self-cleavage amounted to 0.249.

Consider G17C G67U, for which the self-cleavage came out at 0.358.

Consider C3G U65C, for which the self-cleavage was 0.817.

In the case of U65C A71C, the self-cleavage worked out at 0.703.

Consider U37C G82A, for which the self-cleavage turned out to be 0.173.

On to C75G G81U, for which the self-cleavage was determined as 0.133.

For the variant G5C U9C, the self-cleavage was determined as 0.312.

As to G25C C26G, the self-cleavage is 0.731.

For the variant C62G G67A, the self-cleavage worked out at 0.095.

As to C15U G76U, the self-cleavage stood at 1.2.

Turning to G1C C30A, the self-cleavage is 0.104.

On to C49A G81U, for which the self-cleavage worked out at 0.26.

Take G2A G80A: the self-cleavage amounted to 0.0735.

Take G25A A43U: the self-cleavage was 0.0437.

As for G38A C48G, the self-cleavage amounted to 0.148.

Turning to G40A G82U, the self-cleavage came to 0.198.

For G11C C86A, the self-cleavage is 0.489.

For C44A C75A, the self-cleavage is 0.359.

For the variant C14G C22U, the self-cleavage is 0.306.
